We go through 9 molecules from patent US20260120837A1, “METHODS OF DOSING THERAPEUTIC AGENTS” (Fusion Pharmaceuticals Inc., priority 2022, published 2026).

Data set [1] in a line: PK parameters for rats and Ctrans, two-compartment model with nonlinear only clearance pathway (phenytoin). The data set is classed as in vivo. Particulars: rats. On the procedure: Its PK in rats is described by a two-compartment model with nonlinear only clearance described by M-M equation. For this kind of PK model, […] is determined according to Equation (3): PK parameters listed in Table 2, […] and KM, were obtained based on the protocols disclosed in Della Paschoa et al., 1998, with modification to be consistent with the current model description provided herein.

For data set [2] the following is noted: rats; cited from earlier work.
Data set [3] is described as follows: PK parameters and Ctrans, two-compartment model with nonlinear M-M clearance only (cetuximab, alemtuzumab). The class given is in vivo, human. The note with it: calculated by Equation (3). The procedure: For this kind of PK model, Ctrans is determined according to Equation (3): […]
PK parameters listed in Table 1, i.e., Vc, Vp, Q, VM and KM, were obtained based on the protocols disclosed in Dirks et al., 2008 and Mould et al., 2007, with modification to be consistent with the current model description provided herein.

The conditions of data set [4]: cited from earlier work.
Data set [5] is described as follows: PK (TMDD) model parameters and Ctrans, two-compartment TMDD model, QSS approximation. The class given is in vivo, humans. The note with it: for Ctrans: Equation (13); for Ttot = Ksyn/Kdeg: total target concentration. On the procedure: For this kind of PK model, Ctrans is determined according to Equation (2), specified by Equation (13).
where VM and KM are calculated from TMDD model parameters according to Equations (11) and (12).
PK parameters listed in Table S were obtained based on the protocols disclosed in Stein & Peletier, 2018 and Rodriguez-Vera et al., 2015, with modification to be consistent with the current model description listed in Equations (7A)-(7D).

The conditions of data set [6]: cited from earlier work; for Kdeg: degradation of free target; for Cl / Q / Vc / Vp: in vivo; for Kint: internalization of drug-target complex; for Ksyn: target synthesis.
Data set [7] is described as follows: PK parameters and Ctrans, two-compartment model with mixed linear and nonlinear M-M clearance pathways (four antibodies). The data set is classed as in vivo, human. Particulars: calculated by Equation (2), sqrt(KM×VM/Cl). On the procedure:
For this kind of PK model, Ctrans is determined according to Equation (2): […]
PK parameters listed in Table 3, i.e., Vc, Cl, Vp, Q, VM and KM, were obtained based on the protocols disclosed in Frey et al., 2010; Kloft et al., 2004; Ma et al., 2009; and Okamoto et al., 2021, with modification to be consistent with the current model description provided here.

The conditions of data set [8]: cited from earlier work; for KM / Q / VM / Vc / Vp: in vivo; for Cl: linear clearance.
A short description of data set [9]: Minimal dose to keep plasma concentration Cp(t) above Ctrans for Tdur, two-compartment model solved with deSolve (tocilizumab). Further details: species or system humans. On the procedure: This example requires that Ttrans for the desired therapeutic dose be greater than the pre-determined duration time point post-administration, which is denoted herein as Tdur.
PK model parameters for tocilizumab such as Vc, Cl, Vp, Q, KM and VM are provided in Example 3. Ctrans is determined to be 8.22 μg/mL or 8.22 mg/L; Tur is pre-determined as 28 days, which is equal to or less than Ttrans.

For data set [10] the following is noted: in vivo; cited from earlier work.
Data set [11] can be described thus: PK model parameters, Ctrans and therapeutic dose to reach Ctrans at Ttrans, one-compartment model with mixed linear and nonlinear clearance (evolocumab). The class given is in vivo, humans. On the procedure:
Ttrans to reach the transitional concentration Ctrans for any dose level Cmax is determined according to Equation(S). When Ttrans and Ctrans are known, Cmax and the therapeutic dose can be determined as follows.
According to Equation (2), Ctrans is determined to be 115.18 nM or 17.28 mg/L assuming the molecular weight of 150 kDa or 150 kg/mol for a typical antibody. Ttrans is pre-determined to be 28 days. Ttrans and Ctrans can be used to determine Cmax based on Equation(S). Cmax can be obtained from Equation (5) via any root solver as provided in MATLAB™ and RStudio.
PK parameters listed in Table 6 were obtained based on the protocols disclosed in Kuchimanchi et al., 2018, with modification to be consistent with the current model description listed in Equations (2) and (4).

Where two headings read alike, the source gives them in different places.

In the case of `O=C1NC(=O)C(c2ccccc2)(c2ccccc2)N1` [Phenytoin], in [1], the “Q = K12 × Vc” value worked out at 79.98 mL/min and the “Vp = Q/K21” value is 1333 mL. In addition, the Ctrans in data set [1] (calculated by Equation (3)) is 5.9 µg/mL. Also, in data set [2], the K12 was 0.197 min⁻¹, the K21 was 0.060 min⁻¹, the KM is 5.9 µg/mL and the VM was 272 µg/min. The Vc in data set [2] is listed as 406 mL.

With “Alemtuzumab: antibody; PK described by two-compartment model with nonlinear only clearance”, the Ctrans in data set [3] is 338 (μg/L). Besides, in data set [4] (M-M equation coefficient), the KM is listed as 338 (μg/L) and the VM is recorded as 1020 (μg/hour). Moreover, in [4] (central compartment distribution volume), the Vc was 11.3 (L). The Q in [4] (exchange rate between compartments) is listed as 1.05 (L/hour). In addition, the Vp in [4] (peripheral compartment distribution volume) is given as 41.5 (L).

On to “Mavrilimumab: antibody; TMDD model under the QSS condition”, for which, in data set [5], the Ctrans is 4.96 (nM) ^ and the “Ttot = Ksyn/Kdeg” value is given as 1.09 (nM) ^. Also, in data set [5] (in vivo), the “VM = KsynVc” value is on record as 6.72 (nmol/Day). For the same molecule, the Km in data set [5] (in vivo, read-out: KM = KQSS) is 1.1 nM. For the same molecule, the “KQSS = (Kint + Koff)/Kon” value in [5] (quasi-steady-state constant) is recorded as 1.1 (nM) ^. In data set [6], the Kdeg was 2.2 (/day), the Cl is listed as 0.3 (L/day) ^, the Q is listed as 1.7 (L/day) ^ and the Vc was 2.8 L. In addition, in data set [6], the Vp is listed as 5.6 L, the Kint is recorded as 2.2 (/day) and the Ksyn is on record as 2.4 (nM/day)^. In addition, the Koff in data set [6] (drug-target binding reverse rate constant) is listed as 10 (/day).

Take “Nimotuzumab: antibody of Table 5; TMDD model under QSS condition (text b119 says efalizumab)”: in data set [5], the Ctrans is recorded as 142.3 (μg/mL) and the “Ttot = Ksyn/Kdeg” value was 0.26 (μg/mL). In addition, in [5] (in vivo), the “KM = KQSS” value was 6.96 (mg/L) and the “VM = KsynVc” value was 2.045 (mg/hour). In [6], the Kdeg is recorded as 5.5 (/hour), the Cl is 0.000703 (L/hour) ^, the Q was 0.00322 (L/hour) and the Vc was 1.43 L. For the same molecule, in data set [6], the Vp is given as 18.5 L, the Kint was 0.148 (/hour) and the Ksyn is 1.43 (μg/mL/hour). Moreover, the “KQSS = (Kint + Koff)/Kon” value in data set [6] (quasi-steady-state constant) is given as 6.96 (mg/L).

Take “Panitumumab: antibody; two-compartment model with mixed linear and nonlinear clearance”: the Ctrans in data set [7] was 3.98 µg/mL. Moreover, in [8], the KM was 0.401 µg/mL, the Q is listed as 0.389 L/day, the VM is listed as 10.6 mg/day and the Vc is 3.66 L. Further, in [8], the Vp is 2.58 L and the Cl is given as 0.269 L/day.

Consider “Sibrotuzumab: antibody; two-compartment model with mixed linear and nonlinear clearance”, for which the Ctrans in data set [7] was 0.579 µg/mL. In [8], the KM is 0.219 µg/mL, the Q is 0.902 L/day, the VM is 0.811 mg/day and the Vc was 4.13 L. Further, in data set [8], the Vp is 3.19 L and the Cl was 0.530 L/day.

In data set [9], “Tocilizumab: antibody; two-compartment model with mixed linear and nonlinear clearance” returned a Ctrans of 8.22 mg/L. Besides, in data set [7], the Ctrans was 8.22 µg/mL. Further, in data set [8], the KM is 2.7 µg/mL, the Q is listed as 0.2 L/day, the VM is 7.5 mg/day and the Vc was 3.5 L. Besides, in data set [8], the Vp was 2.9 L and the Cl is recorded as 0.3 L/day.

With “Vedolizumab: antibody; two-compartment model with mixed linear and nonlinear clearance”, the Ctrans in [7] is 0.429 µg/mL. Moreover, in data set [8], the KM is 0.851 µg/mL, the Q is given as 0.161 L/day, the VM is 0.238 mg/day and the Vc is 3.16 L. In addition, in data set [8], the Vp was 1.84 L and the Cl is 1.10 L/day.

B1: Evolocumab: antibody; one-compartment model with mixed linear and nonlinear clearance pathways (antibody, chains of the INN, looked up, V domains shown)
VH: EVQLVQSGAEVKKPGASVKVSCKASGYTLTSYGISWVRQAPGQGLEWMGWVSFYNGNTNYAQKLQGRGTMTTDPSTSTAYMELRSLRSDDTAVYYCARGYGMDVWGQGTTVTVSS
VL: ESALTQPASVSGSPGQSITISCTGTSSDVGGYNSVSWYQQHPGKAPKLMIYEVSNRPSGVSNRFSGSKSGNTASLTISGLQAEDEADYYCNSYTSTSMVFGGGTKLTVL
For the molecule B1, in data set [10], the Cl is recorded as 0.105 L/day, the Km was 27.3 nM, the VM is listed as 51.02 nmol/day and the Vc is 5.18 L. Besides, the Ctrans in [11] (Equation (2)) is recorded as 115.18 nM. Further, in data set [11] (assuming molecular weight of 150 kDa), the Ctrans is on record as 17.28 mg/L.
